# Test results from PMC11016754, “Allosteric Probe-Based Colorimetric Assay for Direct Identification and Sensitive Analysis of Methicillin Resistance of Staphylococcus aureus”.
# T1: PBP2a (penicillin binding protein 2a) (Staphylococcus aureus …, UniProt Q53707 25-668)
# T1 sequence: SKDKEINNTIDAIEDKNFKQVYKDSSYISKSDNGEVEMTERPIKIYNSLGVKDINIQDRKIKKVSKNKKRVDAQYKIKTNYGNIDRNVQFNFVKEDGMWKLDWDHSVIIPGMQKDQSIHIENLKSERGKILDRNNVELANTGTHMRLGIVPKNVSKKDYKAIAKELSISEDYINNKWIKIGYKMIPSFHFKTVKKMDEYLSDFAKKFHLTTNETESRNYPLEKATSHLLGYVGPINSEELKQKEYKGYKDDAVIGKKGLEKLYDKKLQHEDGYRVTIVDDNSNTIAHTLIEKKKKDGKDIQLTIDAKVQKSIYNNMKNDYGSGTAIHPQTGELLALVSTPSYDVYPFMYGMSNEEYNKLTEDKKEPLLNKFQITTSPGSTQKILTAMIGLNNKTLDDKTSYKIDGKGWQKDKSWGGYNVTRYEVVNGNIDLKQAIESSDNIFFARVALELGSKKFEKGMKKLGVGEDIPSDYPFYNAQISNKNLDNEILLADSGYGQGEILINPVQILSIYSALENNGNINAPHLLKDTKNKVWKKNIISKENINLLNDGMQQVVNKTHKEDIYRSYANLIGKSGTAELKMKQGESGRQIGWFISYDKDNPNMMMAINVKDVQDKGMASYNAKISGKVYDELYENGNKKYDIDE
# B1: H1 probe (allosteric hairpin with PBP2a aptamer section d) (structured_DNA)
# DNA: CACCCCACCTCGCTCCCGTGACACTAATGCTATTTTTTTTTATTTCTTTATCCTCAGCTTAGTGTCACTAAGC
# Target: T1, PBP2a (penicillin binding protein 2a)
# Assay: fluorescence dequenching (FAM/BHQ hairpin opening); Binding-assay buffer not stated; amplification assay in PBS, room temperature, 60 min, 100 nM H1
# Conditions: label: FAM and BHQ at the two termini
binder,measurement,value
B1,binding result,binds
